Consider one substance from patent US20090142273A1, “Activatable cest MRI agent” (CASE WESTERN RESERVE UNIVERSITY, priority 2006, published 2009).

Experiment [1] concerns the target T1, caspase-3 (Homo sapiens, UniProt P42574).
T1 sequence (P42574 29-175 limits assumed): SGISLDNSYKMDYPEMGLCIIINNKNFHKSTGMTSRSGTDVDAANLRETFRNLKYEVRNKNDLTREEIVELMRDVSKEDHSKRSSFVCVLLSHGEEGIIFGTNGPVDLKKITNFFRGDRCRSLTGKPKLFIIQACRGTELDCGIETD
T1 sequence (P42574 176-277 limits assumed): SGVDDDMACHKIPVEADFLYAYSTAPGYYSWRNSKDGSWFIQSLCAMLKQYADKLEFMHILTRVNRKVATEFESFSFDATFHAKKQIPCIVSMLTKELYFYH
Description: […] spectra of DEVD-(Tm-DOTA) amide before and after adding caspase-3. The class given is biochemical. An excerpt: In one embodiment, the caspase-3 substrate DEVD (Asp-Glu-Val-Asp) was elongated using the amino group on one side arm of lanthanide ligand anchored on the polymer support. FIG. 9 illustrates the conversion of the DEVD-(Ln-DOTA) 90 to amino-(Ln-DOTA) 92 through cleavage by caspase-3. […] Accordingly, the enzymatic activity of caspase-3 can be detected by the change in […] effect caused by this biotransformation.
FIG. 16 illustrates […] spectra 998 and MR parametric map 999 of DEVD-(Tm-DOTA) amide 155 before and after adding caspase-3. […] spectra were acquired at 37° C. and pH 7.4 with a continuous wave saturation pulse applied at 31 μT for 4 seconds. The deconvoluted […] spectrum of the product after reaction, showing a […] effect at +8 ppm, is also shown. MR images were acquired at 37° C. and pH 7.4 with a Bruker Biopsin 9.4 T MR scanner. A MSME T1 method was used with TR/TE=1623/10.9 ms and a train of Gaussian-shaped saturation pulses applied at 25 μT for 1.106 s, and with saturation offsets at −51 ppm and +51 ppm. The parametric map was obtained by subtracting the MR image with a saturation offset at −51 ppm from the MR image with saturation offset at +51 ppm. The magnitude of the scale of the original MR images was used as the scale for this parametric map, to properly represent the difference in MRI contrast obtained with different saturation offsets. The […] spectrum of 155 (25 mM, pH 7.4) was recorded by applying selective saturation in 1 ppm increments from +100 ppm to −100 ppm. A […] effect was detected at −51 ppm, which was assigned to the amide most proximal to the lanthanide ion in 155, based on identical results obtained from a similar compound, Tm3^+-DOTAMGly. After 48 nM of caspase-3 was added and the mixture was incubated at 37° C. and pH 7.4 for 1 hour, the […] effect at −51 ppm was decreased and an asymmetrical shape in the […] spectrum was observed near water. This asymmetry was analyzed by deconvolution to show a […] effect at +8 ppm.

Experiment [2] deals with T1, caspase-3. Description: MR parametric map of DEVD-(Tm-DOTA) amide before and after reaction with caspase-3. The class given is biochemical. The conditions noted are these: saturation at −51 ppm vs +51 ppm, 9.4 T, 37° C., pH 7.4. The procedure:
FIG. 16 illustrates […] spectra 998 and MR parametric map 999 of DEVD-(Tm-DOTA) amide 155 before and after adding caspase-3. […] spectra were acquired at 37° C. and pH 7.4 with a continuous wave saturation pulse applied at 31 μT for 4 seconds. The deconvoluted […] spectrum of the product after reaction, showing a […] effect at +8 ppm, is also shown. MR images were acquired at 37° C. and pH 7.4 with a Bruker Biopsin 9.4 T MR scanner. A MSME T1 method was used with TR/TE=1623/10.9 ms and a train of Gaussian-shaped saturation pulses applied at 25 μT for 1.106 s, and with saturation offsets at −51 ppm and +51 ppm. The parametric map was obtained by subtracting the MR image with a saturation offset at −51 ppm from the MR image with saturation offset at +51 ppm. The magnitude of the scale of the original MR images was used as the scale for this parametric map, to properly represent the difference in MRI contrast obtained with different saturation offsets. The […] spectrum of 155 (25 mM, pH 7.4) was recorded by applying selective saturation in 1 ppm increments from +100 ppm to −100 ppm. A […] effect was detected at −51 ppm, which was assigned to the amide most proximal to the lanthanide ion in 155, based on identical results obtained from a similar compound, Tm3^+-DOTAMGly. […] This asymmetry was analyzed by deconvolution to show a […] effect at +8 ppm. […]

In the case of DEVD-(Tm-DOTA) amide [compound 155], the “change of PARACEST effect at −51 ppm after caspase-3” value in experiment [1] (48 nM caspase-3, 37° C., pH 7.4, 1 hour) is on record as “decreased”. For the same substance, the “PARACEST effect after cleavage by caspase-3 (free amine)” value in experiment [1] (48 nM caspase-3, 37° C., pH 7.4, 1 hour, by deconvolution) is on record as “+8 ppm”. The “PARACEST effect, MR saturation frequency of amide” value in experiment [1] (before caspase-3, 25 mM, pH 7.4, 37° C., 31 μT for 4 seconds) was −51 ppm. Further, in experiment [2], the “change in water MR signal after reaction with caspase-3” value is given as “no significant change” and the “decrease in water MR signal due to the PARACEST effect before the enzymatic reaction” value is reported as roughly 14.5%.
